Measured values reported in patent publication US20050214899.
Where a chain is given by its changes, count along the chain named. Names and notes keep the numbering of the source.

Legend:
MADWLTFQKKHI = biological target: T1, MADWLTFQKKHI
T1 chain: MADWLTFQKKHI

MADYLT = biological target: T2, MADYLT
T2 chain: MADYLT

MADY = biological target: T3, MADY
T3 chain: MADY

MQDWLTFQKKHI = biological target: T4, MQDWLTFQKKHI
T4 chain: MQDWLTFQKKHI

MQDYLT = biological target: T5, MQDYLT
T5 chain: MQDYLT

B1: MetAP-GTG (protein)
chain: AISIKTPEDIEKMRVAGRLAAEVLEMIEPYVKPGVSTGELDRICNDYIVNEQHAVSACLGYHGYPKSVCISINEVVCHGIPDDAKLLKDGDIVNIDVTVIKDGFHGDTSKMFIVGKPTIMGERLCRITQESLYLALRMVKPGINLREIGAAIQKFVEAEGFSVVREGCGHGIGRGFHEEPQVLHYDSRETNVVLKPGMTFTIEPTVNAGKKEIRTMKDGWTVKTKDRSLSAGYEHTIVVTDNGCEILTLRKDDTIPAIISHDE
Protein B1 has a Specific activity (unit/mg) (MADWLTFQKKHI) of 9.8 unit/mg, a Specific activity (unit/mg) (MADYLT) of 2.5 unit/mg and a Specific activity (unit/mg) (MADY) of 1.68 unit/mg. The Specific activity (unit/mg) (MQDWLTFQKKHI) was 4.24 unit/mg, the “specific activity relative to that for MADWLTFQKKHI” value (MQDWLTFQKKHI) was “The specific activity of MetAP-GTG on the dodecapeptide MQDWLTFQKKHI is 43% of that for MADWLTFQKKHI” and the Specific activity (unit/mg) (MQDYLT) was 0.23 unit/mg.

B2: MetAP-M206T-Q233G (protein)
chain: B1 chain with G167Y
B2 gave a Specific activity (unit/mg) (MADWLTFQKKHI) of 73 unit/mg, a Specific activity (unit/mg) (MADYLT) of 116 unit/mg and a Specific activity (unit/mg) (MADY) of 72 unit/mg. For the same protein, the Specific activity (unit/mg) (MQDWLTFQKKHI) was 0.59 unit/mg and the Specific activity (unit/mg) (MQDYLT) was 0.42 unit/mg.

B3: MetAP-M206G-Q233G (protein)
chain: B1 chain with G167Y, T205G
Protein B3 has a Specific activity (unit/mg) (MADWLTFQKKHI) of 3.28 unit/mg, a Specific activity (unit/mg) (MADYLT) of 0.29 unit/mg and a Specific activity (unit/mg) (MADY) of 0.51 unit/mg. For the same protein, the Specific activity (unit/mg) (MQDWLTFQKKHI) was 0.5 unit/mg and the Specific activity (unit/mg) (MQDYLT) was 0.29 unit/mg.

B4: MetAP-M206T-Q233T (protein)
chain: B1 chain with G167Y, G232T
With B4 the Specific activity (unit/mg) (MADYLT) was 0.12 unit/mg, the Specific activity (unit/mg) (MADY) was 0.38 unit/mg and the Specific activity (unit/mg) (MQDYLT) was 0.13 unit/mg.

B5: MetAP-YMQ (wild type E. coli methionine aminopeptidase) (protein)
chain: B1 chain with G167Y, T205M, G232Q
Protein B5 has a Specific activity (unit/mg) (MADWLTFQKKHI) of 85 unit/mg, a Specific activity (unit/mg) (MADYLT) of 138 unit/mg and a Specific activity (unit/mg) (MADY) of 138 unit/mg. The Specific activity (unit/mg) (MQDWLTFQKKHI) was 0.62 unit/mg and the Specific activity (unit/mg) (MQDYLT) was 0.43 unit/mg.
